From the supplement of paper PMC9170038

tested on: K4 kissing-loop RNA reporter; test: apparent KD of K4 kissing-loop reporter; higher = weaker reporter binding; details: Eterna round: R107; input ligand: theophylline 20 uM
Protocol: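 RNA-MaP round R107: designed RNA switches with theophylline, tryptophan, arginine or FMN aptamers are transcribed on-chip within common flanks. They are titrated with a labelled K4 kissing-loop RNA reporter in RNA-MaP buffer (100 mM Tris pH 7.5, 80 mM KCl, 4 mM MgCl2), without ligand or with the indicated ligand. Median apparent KD per design.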
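Also: bound reporter read as fluorescence of individual clusters on recovered sequencing chips by microscopy, with normalized cluster intensities fitted with a binding model.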

Sequence | apparent KD of K4 kissing-loop reporter
UGUACCGAGUCAGGAUAUAGCGUCGAAAGACGAAAUGGAGUGAUGUUCCUUAAACUGCGAAAGCAGCUAGAAGGGACUUGGUACU [FmnBS 28 #SwitchBubble #StaticStem #DoubleMagnetSystem] | 250 nM
CGCAGUGAUGUUGCGAGUUCAUUCAGGGAAGGAGCGCCACAGAUGGCAGGUAGGUCGCCCACGCAGUGAUGUUGUGUAUUCGGGU [Exclusion Arginine A GF 2] | 170 nM
UACUAUAGUGAUGUUAUAGAUAAACCAGAUACCAGUGUAACAUAACACCCUUGGCAGCUGAUGAGGGAAGUUAUCAAAAGAUAAC [AstroSTH-A#10designED4.80] | 115 nM
UUUUUGGAGAAUUAUAGUGAUGUUAUGAAGGAGGAUAUCUGGAGAUGGAGAAGGCCUAGUGGCUCAGCCCUGGAGGGUGGGUGGG [ExFMNA.aB] | 556 nM
UUACAGGAACAAGGAUAUGGCGUUGUAGUGAUGUUACAGCGAAGAGCUCCACGCGAUCGGACAAAACCAGAAGGUGUAUGGAAUC [theeternabot_exclusion_KL_FMN_B_42] | 116 nM
GGUUGAAGCACCCGGAGUGAUGUUCCGGAUACCAGCAAACCAACUUGCCCUUGGCAGCCGUAUAGCGUCCGGUGGGCCGAGCAUA [Beisadi] | 99.3 nM
UGACUGGACUGAAGGAGCGCGCGAGACAAAGUCUCGAACUCUUAGUGAUGUUAGGAAAUAACGCAGGUAGGUCGCAGUCUAGUCU | 473 nM
CGGCGGAGUGAUGUUCUGCUCGCUCCGGAUACCAGCUUCGCCAGAGGCCCUUGGCAGCCGGGCGGCCCAGUGAUGUUGGGUUGCG [Same State Theophylline A GF 17] | 246 nM
AACUCUCAGGCAGCCGAGUGAUGUUCGGCCCGAGGACCGGUACGGCCGCCACUCGGGCCUGAGAGAGGUUAUCAAAGAUAGCCAA [#01 K4 Tryptophan A Same State] | 142 nM
GUACAUUGGAAACAAGAACAAAUAACCGAAGGAGCGCGUGAAAACGCAGGUAGGUCGCGGAAGCAGUGAUGUUGCAUUAGAGAUC [Same State Arginine A GF 16] | 106 nM
CGGAGUGAUGUUCCUUUUAUUAAUUAUUUACGAGGACCGGUACGGCCGCCACUCGAUUUAGCUUUUAUUUAAUGCUUGGAUGUUU [JR_SSTryptoA_Sub004] | 208 nM

same assay, conditions: Eterna round: R107; input ligand: tryptophan 2.4 mM

Sequence | apparent KD of K4 kissing-loop reporter
CGAGUACAUUGCGAUACCAGCGAUAGCAGUUCAACGCGCAGUCCGUUUAGUGAUGUUAGACGCCCUUGGCAGCGCUUCCUGGCAA [theeternabot_exclusion_KL_Theo_B_44] | 393 nM
AUGCCUAUGACGGCCGCCACUGAGAGUCAGUGAUGUUGACUCGAUACAGCUGAUUAGCAGCUAAUCAGGACCGGGUCAUACACAU [Tryp B SS t3] | 123 nM
UAGCGGUAGAGGCCACCGCUAUUCUGAGAAGGAGCGCAGAUGACUGCAGGUAGGUCGCUUAGAGCUUGCAGUGAUGUUGCAAGUU [Tebete] | 131 nM
GGUUUUAACCGCAGUGAUGUUGCGUUGAAACGAGGACCGGUACGGCCGCCACUCGAAAAGAAGCGGCCAAAUUAAAAUCGUAAAG [Exclusion Tryptophan A GF 23] | 114 nM
GCGAAGAGAGAAGGAUAUUAGUAAUGCGUCAUGCGCCCUUACCAGUUAGUGAUGUUAACAAUACAUUAAGAAGGUCUCGGAAUCC [theeternabot_sameState_KL_FMN_B_50] | 185 nM
CUGUAUCAUAUUGAUACCAGAGAAAGAACCAGUGAUGUUGGAAAAGACGAAUAAAUUAUACUCCCUUGGCAGCGGAAAUGAACAG [Totally accidental] | 59.9 nM
GACGUUGAAGCGGCCGCCACUAGGAAGGGUACGGAGAGUACAUCUCACGGAGAGUGAUGUUCUCAUAGGACCGGGCUCAUAUCAA [theeternabot_sameState_KL_Trp_B_21] | 362 nM
AGUCCACUCUAAAGAGUGGACCUAAGGGAUACCAGUGAUGUUGGUCACCCUUGGCAGCCCUCUGUCAUCGAUAAAGAUGGCAGUA | 131 nM
AAAAUAAACCAGUGAUGUUGGUGUCCAGAUACCAGCGACGAAAGUCGCCCUUGGCAGCUGUGGACGUACAAAAUAAGUACGUCCU | 290 nM
UAAUUUAUGUCUUUAAUAUAAUAAUCAGAUACCAGUGAUUUAUGACACCCUUGGCAGCUGUAUAGAGUGAUGUUCUUAUACAUAA [JR_Nu_ExcTheophyA_Sub020] | 294 nM
UGUCAUUGGUCGGCCGCCACUUCGUAUGAAGUGAUGUUUUGUAGAUUGUGUUGAAAGGUAUGGUGAAGGACCGGGACCGAUGACU [FiskerMod 22 - Jieux - Same State - Tryptophan B] | 508 nM
AAGUGUCAUUAGACACACGCAUCUAUAAACUAGGAUAUGCUGAUAAGCAGAAGGAGUGAUGUUCCUUUCAUGAUGCGAAUUAAAU [#07 K4 FMN A Exclusion] | 111 nM
GUCCAACCUGGAGGAUAUCUGCUGUCCAGUGAUGUUGGACACCUUAGUAAAGGCCGGGUAGCCCGCAGAGAAGGCCGGAGUUGCC [Isateron] | 329 nM
AAGUGUGUGGCGGCCGCCACUAGAAUCCAGUGAUGUUGGAGAUAUCACGUAAGUGAUAUCCAUCAUAGGACCGGGCCAUAUAGAA [Same State - Tryptophan B (Freestyle 18)] | 755 nM
GACAGUCGGUGUUAAUGACAGUUACGCGAUACCAGCGAAACAGUACGCCCUUGGCAGCGCAGUGAUGUUGCGCGCCUAGUGUGGU [Esbiceve] | 97.2 nM
UUACUACCCAGUGAUGUUGGGUAGCGGCGGCGAGGACCGGUACGGCCGCCACUCGGCGCACGGGAGUGAUGUUCCUAAGAAUAAA [Same State Tryptophan A GF 9] | 140 nM
